In article PMC9896810, “Crk proteins activate the Rap1 guanine nucleotide exchange factor C3G by segregated adaptor-dependent and -independent mechanisms” (Cell Communication and Signaling : CCS, 2023):

B1: CrkL-SH3N (domain or fragment, human, UniProt P46109 125-182, looked up)
chain: LEYVRTLYDFPGNDAEDLPFKKGEILVIIEKPEEQWWSARNKDGRVGMIPVPYVEKLV
notes: human CrkL, SH3N domain, residues 125-182, in pETEV15b; source: E. coli BL21 (DE3), purified (IMAC, TEV digestion, SEC); not shown: His, N-terminal, cleaved
B2: CrkL (full-length) (natural protein, human, UniProt P46109 1-303, looked up)
chain: MSSARFDSSDRSAWYMGPVSRQEAQTRLQGQRHGMFLVRDSSTCPGDYVLSVSENSRVSHYIINSLPNRRFKIGDQEFDHLPALLEFYKIHYLDTTTLIEPAPRYPSPPMGSVSAPNLPTAEDNLEYVRTLYDFPGNDAEDLPFKKGEILVIIEKPEEQWWSARNKDGRVGMIPVPYVEKLVRSSPHGKHGNRNSNSYGIPEPAHAYAQPQTTTPLPAVSGSPGAAITPLPSTQNGPVFAKAIQKRVPCAYDKTALALEVGDIVKVTRMNINGQWEGEVNGRKGLFPFTHVKIFDPQNPDENE
notes: human CrkL, residues 1-303, in pETEV15b; also called Crk-like protein; source: E. coli BL21 (DE3), purified (IMAC, TEV digestion, SEC); not shown: His, N-terminal, cleaved

Key:
[1] = target: T1, C3G-AAPA-Y554H (human, UniProt Q13905-1 4-1077, P283A | P284A | L286 | P287 | P289A | P453A | P454A | L456A | P457A | K459A | …); assay: ITC; single-PRM mutant of C3G in the cell titrated with CrkL or CrkL-SH3N, 25 °C, 300 mM NaCl, pH 7.5; SEDPHAT, 1:1 heteroassociation model; N is the competent fraction of C3G; settings: both partners purified
T1 construct: human C3G isoform a, residues 4-1077; source: E. coli BL21 (DE3), purified (IMAC, TEV digestion, reversed IMAC, SEC); not shown: His, N-terminal, cleaved; Halo, N-terminal, cleaved
T1 sequence (looked up): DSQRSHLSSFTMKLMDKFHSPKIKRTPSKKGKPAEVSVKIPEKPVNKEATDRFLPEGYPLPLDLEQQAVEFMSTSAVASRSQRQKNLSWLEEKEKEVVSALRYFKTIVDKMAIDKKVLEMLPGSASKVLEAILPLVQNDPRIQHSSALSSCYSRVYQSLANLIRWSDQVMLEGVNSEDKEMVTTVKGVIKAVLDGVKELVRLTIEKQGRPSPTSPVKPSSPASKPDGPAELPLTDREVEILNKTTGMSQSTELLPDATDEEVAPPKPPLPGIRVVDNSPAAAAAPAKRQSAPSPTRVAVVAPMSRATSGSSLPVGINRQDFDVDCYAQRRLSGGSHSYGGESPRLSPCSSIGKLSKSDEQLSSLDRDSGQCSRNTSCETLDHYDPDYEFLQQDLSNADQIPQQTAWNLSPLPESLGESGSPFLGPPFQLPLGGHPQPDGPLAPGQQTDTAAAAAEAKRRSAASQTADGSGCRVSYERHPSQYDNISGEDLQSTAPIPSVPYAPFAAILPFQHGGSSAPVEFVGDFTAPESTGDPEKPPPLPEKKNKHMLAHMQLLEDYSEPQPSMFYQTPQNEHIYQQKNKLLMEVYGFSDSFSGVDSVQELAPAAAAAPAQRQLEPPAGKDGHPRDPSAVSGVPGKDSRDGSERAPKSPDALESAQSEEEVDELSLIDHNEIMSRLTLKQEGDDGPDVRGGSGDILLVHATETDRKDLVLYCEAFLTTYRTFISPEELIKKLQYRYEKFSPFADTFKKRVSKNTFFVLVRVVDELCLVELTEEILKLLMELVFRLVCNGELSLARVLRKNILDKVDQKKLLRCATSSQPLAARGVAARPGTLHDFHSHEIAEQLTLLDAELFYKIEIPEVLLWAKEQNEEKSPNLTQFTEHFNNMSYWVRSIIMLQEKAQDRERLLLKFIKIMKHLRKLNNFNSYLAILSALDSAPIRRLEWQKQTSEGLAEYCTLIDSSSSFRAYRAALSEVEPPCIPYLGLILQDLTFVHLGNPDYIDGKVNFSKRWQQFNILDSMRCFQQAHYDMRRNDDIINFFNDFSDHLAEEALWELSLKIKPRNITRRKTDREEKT

[2] = target: T2, C3G-APAA (human, UniProt Q13905-1 4-1077, P283A | P284A | L286 | P287 | P289A | P540A | P541A | L543A | P544A | K546A | …); assay: as above; settings: both partners purified
T2 construct: human C3G isoform a, residues 4-1077; only P2 kept, P1, P3 and P4 mutated to Ala; source: E. coli BL21 (DE3), purified (IMAC, TEV digestion, reversed IMAC, SEC); not shown: His, N-terminal, cleaved; Halo, N-terminal, cleaved
T2 sequence (looked up): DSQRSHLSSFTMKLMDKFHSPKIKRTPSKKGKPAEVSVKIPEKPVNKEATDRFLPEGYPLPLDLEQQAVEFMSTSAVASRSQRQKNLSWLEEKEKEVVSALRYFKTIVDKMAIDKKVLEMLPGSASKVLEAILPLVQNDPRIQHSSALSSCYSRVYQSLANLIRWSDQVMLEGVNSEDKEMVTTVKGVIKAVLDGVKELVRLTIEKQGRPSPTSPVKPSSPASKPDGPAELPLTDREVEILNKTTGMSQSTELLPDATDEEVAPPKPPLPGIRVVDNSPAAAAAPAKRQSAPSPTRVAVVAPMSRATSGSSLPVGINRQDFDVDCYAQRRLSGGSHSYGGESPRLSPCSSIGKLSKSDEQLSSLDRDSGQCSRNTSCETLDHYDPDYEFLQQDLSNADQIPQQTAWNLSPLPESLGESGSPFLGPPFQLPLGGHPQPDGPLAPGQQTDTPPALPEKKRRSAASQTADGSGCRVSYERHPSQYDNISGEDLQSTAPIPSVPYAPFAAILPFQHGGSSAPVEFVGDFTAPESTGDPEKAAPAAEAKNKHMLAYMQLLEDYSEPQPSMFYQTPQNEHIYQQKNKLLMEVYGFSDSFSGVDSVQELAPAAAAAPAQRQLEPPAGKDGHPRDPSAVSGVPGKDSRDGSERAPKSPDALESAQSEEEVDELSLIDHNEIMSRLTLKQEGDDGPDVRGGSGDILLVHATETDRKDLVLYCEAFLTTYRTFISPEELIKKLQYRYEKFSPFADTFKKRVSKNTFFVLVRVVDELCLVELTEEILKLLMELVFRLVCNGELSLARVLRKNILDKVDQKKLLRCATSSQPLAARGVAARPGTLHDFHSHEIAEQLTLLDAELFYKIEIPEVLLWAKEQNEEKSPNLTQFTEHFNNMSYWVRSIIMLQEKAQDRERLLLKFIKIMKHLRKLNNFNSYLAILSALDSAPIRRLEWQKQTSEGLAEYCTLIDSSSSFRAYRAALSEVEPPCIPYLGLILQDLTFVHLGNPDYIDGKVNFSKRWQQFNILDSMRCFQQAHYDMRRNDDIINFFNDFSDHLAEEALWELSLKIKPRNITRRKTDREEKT

Row | Binder | stoichiometry N [1] | Kd [2] | stoichiometry N [2]
1 | B1 | 0.47 |  | 
2 | B2 |  | 1200 nM | 0.78
